Blank lines part the entries; values can stand above or below the binder they belong to. Non-standard residues stand in square brackets, D forms with d. Nle = CCCC[C@H](N)C(=O)O; R1 = not defined here
Biological target: human MC3R (human, UniProt P41968 1-323)
Assay: cell-based or functional assay

Chain of human MC3R (P41968 whole entry): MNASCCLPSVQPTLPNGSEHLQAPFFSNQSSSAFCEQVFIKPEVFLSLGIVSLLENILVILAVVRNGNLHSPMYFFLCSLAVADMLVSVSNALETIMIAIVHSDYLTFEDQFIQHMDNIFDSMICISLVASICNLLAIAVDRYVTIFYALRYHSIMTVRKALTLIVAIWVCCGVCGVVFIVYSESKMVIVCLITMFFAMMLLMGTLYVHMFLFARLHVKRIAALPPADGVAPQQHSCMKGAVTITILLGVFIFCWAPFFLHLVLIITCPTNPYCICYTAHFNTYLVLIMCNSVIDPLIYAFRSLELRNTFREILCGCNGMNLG

MC3R cAMP (EC50): 17100 nM
MC3R selectivity (relative to MC4R): 0.1
B1: CTX-1111 (peptide)
peptide: Ac-SGH[dF]R[dW]D-NH2
SMILES: CC(=O)N[C@@H](CO)C(=O)NCC(=O)N[C@@H](Cc1c[nH]cn1)C(=O)N[C@H](Cc1ccccc1)C(=O)N[C@@H](CCCNC(=N)N)C(=O)N[C@H](Cc1c[nH]c2ccccc12)C(=O)N[C@@H](CC(=O)O)C(N)=O

MC3R cAMP (EC50): 4.4 nM
MC3R selectivity (relative to MC4R): 2.4
B2: CTX-1107 (peptide)
peptide: H-YV[Nle]GH[dF]R[dW]D-NH2
SMILES: CCCC[C@H](NC(=O)[C@@H](NC(=O)[C@@H](N)Cc1ccc(O)cc1)C(C)C)C(=O)NCC(=O)N[C@@H](Cc1c[nH]cn1)C(=O)N[C@H](Cc1ccccc1)C(=O)N[C@@H](CCCNC(=N)N)C(=O)N[C@H](Cc1c[nH]c2ccccc12)C(=O)N[C@@H](CC(=O)O)C(N)=O

MC3R cAMP (EC50): 1.7 nM
MC3R selectivity (relative to MC4R): 747
Binder: YVXAHFRWDRFG (D-Tyr at 1; Nle at 3; D-Ala at 4; D-Trp at 8) [CTX-1125]

MC3R cAMP (EC50): 952 nM
MC3R selectivity (relative to MC4R): 22
Binder: Ac-[Nle][dA]HFR[dW]DR[dF]K(R1)-OH (reading uncertain) [CTX-1161]

MC3R cAMP (EC50): 1.9 nM
MC3R selectivity (relative to MC4R): 24
B3: CTX-1119 (peptide)
peptide: H-YV[Nle][dA]HFR[dW]DRF-NH2
SMILES: CCCC[C@H](NC(=O)[C@@H](NC(=O)[C@@H](N)Cc1ccc(O)cc1)C(C)C)C(=O)N[C@H](C)C(=O)N[C@@H](Cc1c[nH]cn1)C(=O)N[C@@H](Cc1ccccc1)C(=O)N[C@@H](CCCNC(=N)N)C(=O)N[C@H](Cc1c[nH]c2ccccc12)C(=O)N[C@@H](CC(=O)O)C(=O)N[C@@H](CCCNC(=N)N)C(=O)N[C@@H](Cc1ccccc1)C(N)=O

MC3R cAMP (EC50): 5.8 nM
MC3R selectivity (relative to MC4R): 120
B4: CTX-1106 (peptide)
peptide: H-YVE[dA]H[dF]R[dW]DRFG-OH
SMILES: CC(C)[C@H](NC(=O)[C@@H](N)Cc1ccc(O)cc1)C(=O)N[C@@H](CCC(=O)O)C(=O)N[C@H](C)C(=O)N[C@@H](Cc1c[nH]cn1)C(=O)N[C@H](Cc1ccccc1)C(=O)N[C@@H](CCCNC(=N)N)C(=O)N[C@H](Cc1c[nH]c2ccccc12)C(=O)N[C@@H](CC(=O)O)C(=O)N[C@@H](CCCNC(=N)N)C(=O)N[C@@H](Cc1ccccc1)C(=O)NCC(=O)O

MC3R cAMP (EC50): 4090 nM
MC3R selectivity (relative to MC4R): 8.6
B5: CTX-1112 (peptide)
peptide: Ac-TGHFR[dW]D-NH2
SMILES: CC(=O)N[C@H](C(=O)NCC(=O)N[C@@H](Cc1c[nH]cn1)C(=O)N[C@@H](Cc1ccccc1)C(=O)N[C@@H](CCCNC(=N)N)C(=O)N[C@H](Cc1c[nH]c2ccccc12)C(=O)N[C@@H](CC(=O)O)C(N)=O)[C@@H](C)O

MC3R cAMP (EC50): 1.9 nM
MC3R selectivity (relative to MC4R): 37
Binder: YVXFHFRWDRFG (Nle at 3; D-Phe at 4; D-Trp at 8) [CTX-1136]

MC3R cAMP (EC50): 3.5 nM
MC3R selectivity (relative to MC4R): 27
Binder: YVXAHFRWDRFG (Nle at 3; D-Ala at 4; D-Phe at 6; D-Trp at 8) [CTX-1104]

MC3R cAMP (EC50): 213 nM
MC3R selectivity (relative to MC4R): 28
B6: CTX-1123 (peptide)
peptide: Ac-[Nle][dA]HFR[dW]D-NH2
SMILES: CCCC[C@H](NC(C)=O)C(=O)N[C@H](C)C(=O)N[C@@H](Cc1c[nH]cn1)C(=O)N[C@@H](Cc1ccccc1)C(=O)N[C@@H](CCCNC(=N)N)C(=O)N[C@H](Cc1c[nH]c2ccccc12)C(=O)N[C@@H](CC(=O)O)C(N)=O

MC3R cAMP (EC50): 710 nM
MC3R selectivity (relative to MC4R): 6800
Binder: R1-V[Nle][dA]HFR[dW]DRFG-OH (reading uncertain) [CTX-1149 (R1, SEQ ID NO 66)]

MC3R cAMP (EC50): 102 nM
MC3R selectivity (relative to MC4R): 718
B7: CTX-1181 (peptide)
peptide: Ac-[Nle][dV]HFR[dW]DRFG-OH
SMILES: CCCC[C@H](NC(C)=O)C(=O)N[C@@H](C(=O)N[C@@H](Cc1c[nH]cn1)C(=O)N[C@@H](Cc1ccccc1)C(=O)N[C@@H](CCCNC(=N)N)C(=O)N[C@H](Cc1c[nH]c2ccccc12)C(=O)N[C@@H](CC(=O)O)C(=O)N[C@@H](CCCNC(=N)N)C(=O)N[C@@H](Cc1ccccc1)C(=O)NCC(=O)O)C(C)C

MC3R cAMP (EC50): 1.4 nM
MC3R selectivity (relative to MC4R): 7.4
Binder: YVXAHFRWDRFG (Nle at 3; D-Trp at 8) [CTX-1133]

MC3R cAMP (EC50): 1.2 nM
MC3R selectivity (relative to MC4R): 59
Binder: YVXAHFRWDRFG (Nle at 3; D-Ala at 4; D-Trp at 8; C-terminal amide) [CTX-1118]

MC3R cAMP (EC50): 4430 nM
MC3R selectivity (relative to MC4R): 0.4
B8: CTX-1113 (peptide)
peptide: Ac-TGH[dF]R[dW]D-NH2
SMILES: CC(=O)N[C@H](C(=O)NCC(=O)N[C@@H](Cc1c[nH]cn1)C(=O)N[C@H](Cc1ccccc1)C(=O)N[C@@H](CCCNC(=N)N)C(=O)N[C@H](Cc1c[nH]c2ccccc12)C(=O)N[C@@H](CC(=O)O)C(N)=O)[C@@H](C)O

MC3R cAMP (EC50): 3.1 nM
MC3R selectivity (relative to MC4R): 2120
B9: CTX-1121 (peptide)
peptide: Ac-V[Nle][dA]HFR[dW]DRFG-OH
SMILES: CCCC[C@H](NC(=O)[C@@H](NC(C)=O)C(C)C)C(=O)N[C@H](C)C(=O)N[C@@H](Cc1c[nH]cn1)C(=O)N[C@@H](Cc1ccccc1)C(=O)N[C@@H](CCCNC(=N)N)C(=O)N[C@H](Cc1c[nH]c2ccccc12)C(=O)N[C@@H](CC(=O)O)C(=O)N[C@@H](CCCNC(=N)N)C(=O)N[C@@H](Cc1ccccc1)C(=O)NCC(=O)O

MC3R cAMP (EC50): 170 nM
B10: CTX-1146 (peptide)
peptide: Ac-[Nle][dA]HFR[dW]D[dR]FG-OH
SMILES: CCCC[C@H](NC(C)=O)C(=O)N[C@H](C)C(=O)N[C@@H](Cc1c[nH]cn1)C(=O)N[C@@H](Cc1ccccc1)C(=O)N[C@@H](CCCNC(=N)N)C(=O)N[C@H](Cc1c[nH]c2ccccc12)C(=O)N[C@@H](CC(=O)O)C(=O)N[C@H](CCCNC(=N)N)C(=O)N[C@@H](Cc1ccccc1)C(=O)NCC(=O)O

MC3R cAMP (EC50): 1.7 nM
MC3R selectivity (relative to MC4R): 69
Binder: YVXAHFRWDRFG (NMe-Tyr at 1; Nle at 3; D-Ala at 4; D-Trp at 8) [CTX-1124]

MC3R cAMP (EC50): 7400 nM
Binder: Ac-SGHFR[dW]D-NH2 [CTX-1110]

MC3R cAMP (EC50): 13.1 nM
MC3R selectivity (relative to MC4R): 10.6
B11: CTX-1109 (peptide)
peptide: H-YV[Nle][dA]H[dF]R[dW]D-NH2
SMILES: CCCC[C@H](NC(=O)[C@@H](NC(=O)[C@@H](N)Cc1ccc(O)cc1)C(C)C)C(=O)N[C@H](C)C(=O)N[C@@H](Cc1c[nH]cn1)C(=O)N[C@H](Cc1ccccc1)C(=O)N[C@@H](CCCNC(=N)N)C(=O)N[C@H](Cc1c[nH]c2ccccc12)C(=O)N[C@@H](CC(=O)O)C(N)=O
